Assay results reported in patent publication US20090068637A1.

What was measured:
Assay in all cases: cell-based or functional assay
[1] = target: HA of H5N1 virus strain GD2 (avian influenza virus H5N1)
[2] = target: HA of H5N1 virus strain MB2 (avian influenza virus H5N1)
[3] = target: H5 virus strains (thirty-four strains of H5N1 viruses)
[4] = target: HA of H5N1 virus strain IDN2 (avian influenza virus H5N1)
[5] = target: HA of H5N1 virus strain GD1 (avian influenza virus H5N1)
[6] = target: HA of H5N1 virus strain VTM1.1 (avian influenza virus H5N1)
[7] = target: HA of H5N1 virus strain VTM3 (avian influenza virus H5N1)
[8] = target: HA of H5N1 virus strain YN1 (avian influenza virus H5N1)
[9] = target: HA of H5N1 virus strain HN1 (avian influenza virus H5N1)
[10] = target: HA of H5N1 virus strain VNM2.1 (avian influenza virus H5N1)
[11] = target: HA of H5N1 virus strain IDN4 (avian influenza virus H5N1)
[12] = target: HA of H5N1 virus strain VTM2 (avian influenza virus H5N1)
[13] = target: HA of H5N1 virus strain MIX3 (avian influenza virus H5N1)
[14] = target: HA of H5N1 virus strain IDN5 (avian influenza virus H5N1)
[15] = target: non-H5 viruses (14 strains; H1~H13, Chicken NDV)
[16] = target: HA of H5N1 virus strain MB1 (avian influenza virus H5N1)
[17] = target: HA of H5N1 virus strain IDN3 (avian influenza virus H5N1)
[18] = target: HA of H5N1 virus strain GD3 (avian influenza virus H5N1)
[19] = target: HA of H5N1 virus strain MIX2 (avian influenza virus H5N1)
[20] = target: HA of H5N1 virus strain HN2 (avian influenza virus H5N1)
[21] = target: HA of H5N1 virus strain VTM4 (avian influenza virus H5N1)
[22] = target: HA of H5N1 virus strain MIX1 (avian influenza virus H5N1)
[23] = target: HA of H5N1 virus strain IDN1.1 (avian influenza virus H5N1)

B1: monoclonal antibody 3C8 (antibody, V domains shown)
VH: QIQLVQSGPELKKPGETVKISCKASGYSFTNYGMNWVKQAPGKGLKWMGWINTYTGEPAYADDFKGRFAFSLETSASTAYLQINNLKNEDTATYFCARWNRDAMDYWGQGTSVTVSS
VL: DIVLTQSPASLAVSLGQRATISCRASESVDSSDNSLMHWYQQKPGQPPKLLIYRASNLESGIPARFSGSGSRTDFTLTINPVEADDVATYYCQQSIGDPPYTFGGGTKLEIKR
100 titer: Neutralization titer [22]
32: HI assay: positive number/total virus number (of 34 strains) [3]
3200 titer: HI titer [2] | HI titer [6] | HI titer [9] | HI titer [18] | HI titer [23]
800 titer: HI titer [19] | HI titer [20] | HI titer [21]
12800 titer: HI titer [1] | Neutralization titer [1] | Neutralization titer [2] | Neutralization titer [4] | Neutralization titer [5] | Neutralization titer [7] | Neutralization titer [9] | Neutralization titer [11] | Neutralization titer [21]
< 100 titer: HI titer [10] | Neutralization titer [10] | HI titer [17] | Neutralization titer [19]
1600 titer: Neutralization titer [6] | HI titer [8] | HI titer [12] | HI titer [22]
0: HI assay: positive number/total virus number (of 14 strains) [15]
6400 titer: HI titer [5] | HI titer [7] | HI titer [11] | Neutralization titer [12] | HI titer [14] | Neutralization titer [14] | Neutralization titer [20] | Neutralization titer [23]
200 titer: Neutralization titer [13] | Neutralization titer [18]
400 titer: HI titer [4] | HI titer [13] | HI titer [16]

B2: monoclonal antibody 4D1 (antibody, V domains shown)
VH: QVQLQQPGAELVKPGASVNLSCKASGYTFTSYWMHWVKQRPGQGLEWIGEIDPSDSFTTYNQNFKDRATLTVDKSSSTAYMQLRSLTSEDSAVYYCARGGPGDFRYAMDYWGQGTSVTVSS
VL: DILMTQSPSSMSVSLGDTVSITCHASQGISSNIGWLQQKPGKSFKGLIYHGTNLEDGVPSRFSGSGSGADYSLTISSLESEDFADYYCVQYVQFPYTFGGGTKLEIKR
0: HI assay: positive number/total virus number (of 14 strains) [15]
800 titer: HI titer [1] | HI titer [4]
12800 titer: Neutralization titer [1] | Neutralization titer [2] | Neutralization titer [4] | HI titer [5] | Neutralization titer [5] | HI titer [7] | Neutralization titer [7] | Neutralization titer [8] | HI titer [9] | Neutralization titer [9] | HI titer [11] | Neutralization titer [11] | HI titer [13] | Neutralization titer [13] | HI titer [14] | Neutralization titer [14] | Neutralization titer [17] | HI titer [18] | Neutralization titer [18] | HI titer [19] | Neutralization titer [19] | Neutralization titer [20] | HI titer [22] | Neutralization titer [22] | HI titer [23] | Neutralization titer [23]
3200 titer: HI titer [6] | HI titer [12] | Neutralization titer [12] | HI titer [16] | HI titer [20]
6400 titer: HI titer [2] | HI titer [8] | Neutralization titer [16] | HI titer [17]
400 titer: HI titer [10] | HI titer [21]
1600 titer: Neutralization titer [6] | Neutralization titer [10] | Neutralization titer [21]
34: HI assay: positive number/total virus number (of 34 strains) [3]

B3: monoclonal antibody 10F7 (antibody, V domains shown)
VH: QVQLQQPGAELVKPGASVKLSCKASGYTFTSYWMHWVKQRPGQGLEWIGEIDPSDSYTNYNQKFKGKATLTVDKSSSTAYMQLSSLTSEDSAVYYCARGGTGDFHYAMDYWGQGTSVTVSS
VL: DILMTQSPSSMSVSLGDTVSITCHASQGISSNIGWLQQKPGKSFKGLIYHGTNLEDGVPSRFSGSGSGADYSLTISSLESEDFADYYCVQYVQFPYTFGGGTKLEIKR
0: HI assay: positive number/total virus number (of 14 strains) [15]
200 titer: Neutralization titer [10] | Neutralization titer [21]
12800 titer: HI titer [1] | Neutralization titer [1] | HI titer [2] | Neutralization titer [2] | Neutralization titer [4] | Neutralization titer [5] | HI titer [7] | Neutralization titer [7] | Neutralization titer [8] | HI titer [9] | Neutralization titer [9] | HI titer [11] | Neutralization titer [11] | HI titer [13] | Neutralization titer [13] | Neutralization titer [14] | Neutralization titer [16] | Neutralization titer [17] | HI titer [18] | Neutralization titer [18] | HI titer [19] | Neutralization titer [19] | Neutralization titer [20] | HI titer [22] | Neutralization titer [22] | HI titer [23] | Neutralization titer [23]
3200 titer: HI titer [6] | Neutralization titer [6] | HI titer [8] | HI titer [10] | Neutralization titer [12]
400 titer: HI titer [21]
1600 titer: HI titer [4] | HI titer [12] | HI titer [17] | HI titer [20]
34: HI assay: positive number/total virus number (of 34 strains) [3]
6400 titer: HI titer [5] | HI titer [14] | HI titer [16]

B4: monoclonal antibody 8H5 (antibody, V domains shown)
VH: QVQLQQSGAELMKPGASVKISCKATGYTFSNYWIEWIKQRPGHGLEWIGEILPGSDRTNYNGKFKGKATFTADTSSNTAHMQLSSLTSEDSAVYYCANRYDGYYFGLDYWGQGTSVAVSS
VL: EIVLTQSPAIMSASLGEKVTMSCRASSSVNFVYWYQQRSDASPKLLIYYSSNLAPGVPPRFSGSGSGNSYSLTISGLEGEDAATYYCQHFTSSPYTFGGGTNLEIKR
0: HI assay: positive number/total virus number (of 14 strains) [15]
